The data set has as its system TRMT10C (MRPP1, RG9MTD1) (Homo sapiens). Kind of data set: EMSA. The settings on record: apparent Kd; EMSA: 1 nM 5'-labelled pre-tRNA, 10 nM-1.2 uM protein, methylation/processing buffer (composition not in material) + 100 mM sucrose, 30 min at room ….

As to (mt)pre-tRNAHis, the Kd was 203 nM.

Regarding (mt)pre-tRNAIle, the Kd stood at 255 nM.
